Measured values published in patent US20230002480A1.

What was measured:
Test in all cases: cell-based or functional assay
[1] = biological target: HIV-1 Env of pseudovirus 1006_11_C3_1601 (HIV-1)
[2] = biological target: HIV-1 Env of pseudovirus 1012_11_TC21_3257 (HIV-1)
[3] = biological target: HIV-1 Env of pseudovirus 1056_10_TA11_1826 (HIV-1)
[4] = biological target: HIV-1 Env of pseudovirus 191955_A11 (HIV-1)
[5] = biological target: HIV-1 Env of pseudovirus 235-47 (HIV-1)
[6] = biological target: HIV-1 Env of pseudovirus 249M B10 (HIV-1)
[7] = biological target: HIV-1 Env of pseudovirus 3103.v3.c10 (HIV-1)
[8] = biological target: HIV-1 Env of pseudovirus 62357_14_D3_4589 (HIV-1)
[9] = biological target: HIV-1 Env of pseudovirus 6244_13_B5_4576 (HIV-1)
[10] = biological target: HIV-1 Env of pseudovirus 6540.v4.c1 (HIV-1)
[11] = biological target: HIV-1 Env of pseudovirus 6545.v4.c1 (HIV-1)
[12] = biological target: HIV-1 Env of pseudovirus BJOX009000.02.4 (HIV-1)
[13] = biological target: HIV-1 Env of pseudovirus C1080.c03 (HIV-1)
[14] = biological target: HIV-1 Env of pseudovirus C3347.c11 (HIV-1)
[15] = biological target: HIV-1 Env of pseudovirus CAP210.2.00.E8 (HIV-1)
[16] = biological target: HIV-1 Env of pseudovirus CAP45.2.00.G3 (HIV-1)
[17] = biological target: HIV-1 Env of pseudovirus CNE21 (HIV-1)
[18] = biological target: HIV-1 Env of pseudovirus CNE30 (HIV-1)
[19] = biological target: HIV-1 Env of pseudovirus CNE52 (HIV-1)
[20] = biological target: HIV-1 Env of pseudovirus CNE53 (HIV-1)
[21] = biological target: HIV-1 Env of pseudovirus Ce0393_C3 (HIV-1)
[22] = biological target: HIV-1 Env of pseudovirus Ce1176_A3 (HIV-1)
[23] = biological target: HIV-1 Env of pseudovirus Ce704809221_1B3 (HIV-1)
[24] = biological target: HIV-1 Env of pseudovirus HIV-0013095-2.11 (HIV-1)
[25] = biological target: HIV-1 Env of pseudovirus R1166.c01 (HIV-1)
[26] = biological target: HIV-1 Env of pseudovirus R2184.c04 (HIV-1)
[27] = biological target: HIV-1 Env of pseudovirus RHPA4259.7 (HIV-1)
[28] = biological target: HIV-1 Env of pseudovirus SC05_8C11_2344 (HIV-1)
[29] = biological target: HIV-1 Env of pseudovirus T251-18 (HIV-1)
[30] = biological target: HIV-1 Env of pseudovirus T255-34 (HIV-1)
[31] = biological target: HIV-1 Env of pseudovirus TRJO4551.58 (HIV-1)
[32] = biological target: HIV-1 Env of pseudovirus TRO.11 (HIV-1)
[33] = biological target: HIV-1 Env of pseudovirus X1632_S2_B10 (HIV-1)
[34] = biological target: HIV-1 Env of pseudovirus X2131_C1_B5 (HIV-1)
[35] = biological target: HIV-1 Env of pseudovirus ZM135M.PL10a (HIV-1)
[36] = biological target: HIV-1 Env of pseudovirus ZM214M.PL15 (HIV-1)
[37] = biological target: HIV-1 Env of pseudovirus ZM233M.PB6 (HIV-1)

VRC07 (antibody)
neutralization IC50 [1]: 0.015 µg/mL
neutralization IC80 [1]: 0.046 µg/mL
neutralization IC50 [2]: 0.014 µg/mL
neutralization IC80 [2]: 0.045 µg/mL
neutralization IC50 [3]: 0.239 µg/mL
neutralization IC80 [3]: 1.11 µg/mL
neutralization IC50 [4]: 0.978 µg/mL
neutralization IC80 [4]: 4.82 µg/mL
IC50, titer in TZM.bl cells [5]: 0.024 µg/mL
IC80, titer in TZM.bl cells [5]: 0.075 µg/mL
neutralization IC50 [6]: 0.052 µg/mL
neutralization IC80 [6]: 0.204 µg/mL
IC50, titer in TZM.bl cells [7]: 0.675 µg/mL
IC80, titer in TZM.bl cells [7]: 1.95 µg/mL
neutralization IC50 [8]: 0.075 µg/mL
neutralization IC80 [8]: 0.256 µg/mL
neutralization IC50 [9]: 0.065 µg/mL
neutralization IC80 [9]: 0.23 µg/mL
IC50, titer in TZM.bl cells [10]: > 50 µg/mL
IC80, titer in TZM.bl cells [10]: > 50 µg/mL
IC50, titer in TZM.bl cells [11]: > 50 µg/mL
IC80, titer in TZM.bl cells [11]: > 50 µg/mL
IC50, titer in TZM.bl cells [12]: 0.806 µg/mL
IC80, titer in TZM.bl cells [12]: 2.9 µg/mL
IC50, titer in TZM.bl cells [13]: 2.03 µg/mL
IC80, titer in TZM.bl cells [13]: 8.25 µg/mL
IC50, titer in TZM.bl cells [14]: 0.06 µg/mL
IC80, titer in TZM.bl cells [14]: 0.38 µg/mL
neutralization IC50 [15]: > 50 µg/mL
neutralization IC80 [15]: > 50 µg/mL
neutralization IC50 [16]: 0.355 µg/mL
neutralization IC80 [16]: 3.09 µg/mL
neutralization IC50 [17]: 0.05 µg/mL
neutralization IC80 [17]: 0.222 µg/mL
neutralization IC50 [18]: 0.326 µg/mL
neutralization IC80 [18]: 1.08 µg/mL
neutralization IC50 [19]: 0.042 µg/mL
neutralization IC80 [19]: 0.142 µg/mL
neutralization IC50 [20]: 0.031 µg/mL
neutralization IC80 [20]: 0.086 µg/mL
neutralization IC50 [21]: 0.182 µg/mL
neutralization IC80 [21]: 0.634 µg/mL
neutralization IC50 [22]: 0.52 µg/mL
neutralization IC80 [22]: 2.6 µg/mL
neutralization IC50 [23]: 0.273 µg/mL
neutralization IC80 [23]: 1.14 µg/mL
neutralization IC50 [24]: 0.017 µg/mL
neutralization IC80 [24]: 0.057 µg/mL
IC50, titer in TZM.bl cells [25]: 0.81 µg/mL
IC80, titer in TZM.bl cells [25]: 3.17 µg/mL
IC50, titer in TZM.bl cells [26]: 0.02 µg/mL
IC80, titer in TZM.bl cells [26]: 0.104 µg/mL
neutralization IC50 [27]: 0.017 µg/mL
neutralization IC80 [27]: 0.048 µg/mL
neutralization IC50 [28]: 0.133 µg/mL
neutralization IC80 [28]: 0.401 µg/mL
IC50, titer in TZM.bl cells [29]: 1.32 µg/mL
IC80, titer in TZM.bl cells [29]: 6.49 µg/mL
IC50, titer in TZM.bl cells [30]: 0.227 µg/mL
IC80, titer in TZM.bl cells [30]: 0.987 µg/mL
neutralization IC50 [31]: 0.032 µg/mL
neutralization IC80 [31]: 0.125 µg/mL
neutralization IC50 [32]: 0.132 µg/mL
neutralization IC80 [32]: 0.456 µg/mL
IC50, titer in TZM.bl cells [33]: 0.023 µg/mL
IC80, titer in TZM.bl cells [33]: 0.107 µg/mL
IC50, titer in TZM.bl cells [34]: 0.219 µg/mL
IC80, titer in TZM.bl cells [34]: 1.03 µg/mL
neutralization IC50 [35]: 0.104 µg/mL
neutralization IC80 [35]: 0.383 µg/mL
neutralization IC50 [36]: 0.198 µg/mL
neutralization IC80 [36]: 1.42 µg/mL
neutralization IC50 [37]: 0.152 µg/mL
neutralization IC80 [37]: 0.625 µg/mL
